± gives the uncertainty stated by the source.
Test: self-splicing fitness, log relative to wild type (ln ratio); higher = more splicing; Tetrahymena group I intron in knt gene, E. coli kanamycin selection, DiMSum; sequences stand for … in CUCUCU…GGAGGGAAAAGUUAUCAGGCAUGCACCUGGUAGCUAGUCUUUAAACCAAUAGAUUGCAUCGGUUUAAAAGGCAAGACCGUCAAAUUGCGGGAAAGGGGUCAACAGCCGUUCAGUACCAAGUCUCAGGGGAAACUUUGAGAUGGCCUUGCAAAGGGUAUGGUAAUAAGCUGACGGACAUGGUCCUAACCACGCAGCCAAGUCCUAAGUCAACAGAUCUUCUGUUGAUAUGGAUGCAGUUCACAGACUAAAUGUCGGUCGGGGAAGAUGUAUUCUUCUCAUAAGAUAUAGUCGGACCUCUCCUUAAUGGGAGCUAGCGGAUGAAGUGAUGCAACACUGGAGCCGCUGGGAACUAAUUUGUAUGCGAAAGUAUAUUGAUUAGUUUUGGAGUACUCGUGGUCG
Procedure, shortened: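 Fitness was computed with DiMSum as the error-weighted combination of replicate fold changes, kanamycin versus none, each normalised to wild type. The library randomised all eight intron nucleotides of the P1ex region, with the intron placed in the knt kanamycin-resistance gene on pET-22b(+) in E. coli BL21(DE3). Six replicate transformations were grown overnight at 37°C or 30°C on LB agar with or without 25 μg/mL kanamycin, plus 100 μg/mL carbenicillin, 50 μM IPTG and 0.2% rhamnose. Pooled colonies were amplicon-sequenced on an Illumina HiSeq 2500.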

Sequence	self-splicing fitness (ln) (30 °C)	self-splicing fitness (ln) (37 °C)
UAAUAGCAAUAUUACGGCGU	-2.6 ± 0.19	-1.6 ± 0.24
UAAUAGCAAUAUUACGGGAA	-2.04 ± 0.21	-2.11 ± 0.26
UAAUAGCAAUAUUACGGGAU	-4.36 ± 0.46	-2.49 ± 0.22
UAAUAGCAAUAUUACGGGGA	-1.91 ± 0.15	-2.65 ± 0.34
UAAUAGCAAUAUUACGGGUA	-1.9 ± 0.17	-0.433 ± 0.14
UAAUAGCAAUAUUACGGUCG	-0.872 ± 0.1	0.313 ± 0.11
UAAUAGCAAUAUUACGUAAC		-2.03 ± 0.38
UAAUAGCAAUAUUACGUAUG	-1.88 ± 0.12	-0.28 ± 0.13
UAAUAGCAAUAUUACGUGCC	-3.27 ± 0.43	-1.47 ± 0.31
UAAUAGCAAUAUUACGUGGA	-2.97 ± 0.23	-2.33 ± 0.24
UAAUAGCAAUAUUACGUUAC	-4.32 ± 0.34	-2.2 ± 0.23
UAAUAGCAAUAUUACGUUCA	-0.833 ± 0.098	-0.14 ± 0.1
UAAUAGCAAUAUUACGUUCC		-1.52 ± 0.48
UACAAGCAAUAUUACGAACU	-1.48 ± 0.089	-0.628 ± 0.1
UACAAGCAAUAUUACGAAGG	-2.52 ± 0.11	-1.38 ± 0.12
UACAAGCAAUAUUACGACAA	-0.986 ± 0.11	-0.403 ± 0.11
UACAAGCAAUAUUACGAGCG	-0.155 ± 0.074	-0.0756 ± 0.099
UACAAGCAAUAUUACGAUAA	-1.93 ± 0.13	-0.276 ± 0.12
UACAAGCAAUAUUACGAUAU	-2.75 ± 0.15	-1.66 ± 0.19
UACAAGCAAUAUUACGAUGG	-1.37 ± 0.079	-0.712 ± 0.085
UACAAGCAAUAUUACGAUUU	-1.76 ± 0.066	-0.754 ± 0.084
UACAAGCAAUAUUACGCAAA	-2.24 ± 0.14	-1.51 ± 0.14
UACAAGCAAUAUUACGCACU	-0.66 ± 0.077	-0.133 ± 0.09
UACAAGCAAUAUUACGCUCC	-2.38 ± 0.17	-0.668 ± 0.17
UACAAGCAAUAUUACGCUUU	-3.73 ± 0.17	-2.29 ± 0.16

Sequence	self-splicing fitness (ln) (30 °C)	self-splicing fitness (ln) (37 °C)
UACAAGCAAUAUUACGGCUC	-1.46 ± 0.088	-0.468 ± 0.11
UACAAGCAAUAUUACGGGGU	-3.88 ± 0.15	-2.58 ± 0.15
UACAAGCAAUAUUACGGGUC	-3.32 ± 0.16	-2.78 ± 0.16
UACAAGCAAUAUUACGGUCC	-1.38 ± 0.18	-1.34 ± 0.18
UACAAGCAAUAUUACGGUGU	-3.91 ± 0.17	-1.71 ± 0.12
UACAAGCAAUAUUACGUAAU	-2.72 ± 0.18	-0.0213 ± 0.15
UACAAGCAAUAUUACGUCAG	-2.54 ± 0.14	-2 ± 0.15
UACAAGCAAUAUUACGUCUG	-0.521 ± 0.071	0.299 ± 0.08
UACAAGCAAUAUUACGUUUA	-1.33 ± 0.07	-0.605 ± 0.072
UACCAGCAAUAUUACGAAGA	-1.63 ± 0.097	-0.519 ± 0.11
UACCAGCAAUAUUACGACCC	-2.84 ± 0.5	-1.02 ± 0.44
UACCAGCAAUAUUACGACUC	-2.5 ± 0.18	-1.65 ± 0.2
UACCAGCAAUAUUACGAUAC		-2.39 ± 0.19
UACCAGCAAUAUUACGAUCC	-1.4 ± 0.15	-1.84 ± 0.26
UACCAGCAAUAUUACGAUGC	-3.19 ± 0.16	-3.07 ± 0.25
UACCAGCAAUAUUACGAUGU	-1.9 ± 0.091	-1.41 ± 0.11
UACCAGCAAUAUUACGCAAU	-2.29 ± 0.091	-0.841 ± 0.076
UACCAGCAAUAUUACGCAUA	-0.736 ± 0.072	0.0861 ± 0.083
UACCAGCAAUAUUACGCAUG	-1.22 ± 0.062	-1.09 ± 0.078
UACCAGCAAUAUUACGCCGA	-1.45 ± 0.16	-0.513 ± 0.17
UACCAGCAAUAUUACGCGAG	-0.774 ± 0.049	-0.168 ± 0.061
UACCAGCAAUAUUACGCUCC	-1.12 ± 0.18	-0.501 ± 0.2
UACCAGCAAUAUUACGGCCG	0.00307 ± 0.099	-0.366 ± 0.12
UACCAGCAAUAUUACGGGCU	-2.89 ± 0.14	-1.96 ± 0.19
UACCAGCAAUAUUACGUAAU	-2.56 ± 0.097	-1.06 ± 0.096

Sequence	self-splicing fitness (ln) (30 °C)	self-splicing fitness (ln) (37 °C)
UACCAGCAAUAUUACGUGAA	-1.06 ± 0.053	-0.463 ± 0.076
UACCAGCAAUAUUACGUUCU	-2.28 ± 0.096	-1.86 ± 0.11
UACGAGCAAUAUUACGAAAA	-3.03 ± 0.44	-2.28 ± 0.39
UACGAGCAAUAUUACGAAAU		-1.69 ± 0.25
UACGAGCAAUAUUACGACAC	-3.07 ± 0.19	-3.28 ± 0.25
UACGAGCAAUAUUACGACCA	-1.71 ± 0.42	
UACGAGCAAUAUUACGACGG	-2.13 ± 0.15	0.000849 ± 0.18
UACGAGCAAUAUUACGAGGC	-4.33 ± 0.39	-2.51 ± 0.25
UACGAGCAAUAUUACGAUCA	-1.89 ± 0.15	-0.737 ± 0.13
UACGAGCAAUAUUACGAUGU	-3.35 ± 0.32	-2.46 ± 0.34
UACGAGCAAUAUUACGAUUU	-2.88 ± 0.17	-1.3 ± 0.16
UACGAGCAAUAUUACGCAGU	-3.15 ± 0.26	-2.95 ± 0.33
UACGAGCAAUAUUACGCCAC		-2.29 ± 0.42
UACGAGCAAUAUUACGCGCG	-1.35 ± 0.13	-1.14 ± 0.18
UACGAGCAAUAUUACGGAAC	-4.04 ± 0.42	-3.02 ± 0.35
UACGAGCAAUAUUACGGAGC	-2.66 ± 0.3	-2.8 ± 0.32
UACGAGCAAUAUUACGGCAU	-3.45 ± 0.23	-1.25 ± 0.15
UACGAGCAAUAUUACGGCUC		0.0878 ± 0.5
UACGAGCAAUAUUACGGCUG	-0.628 ± 0.077	-0.0702 ± 0.1
UACGAGCAAUAUUACGGUCC	-3.61 ± 0.43	
UACGAGCAAUAUUACGGUGA	-3.12 ± 0.18	-1.21 ± 0.13
UACGAGCAAUAUUACGUACU	-3.32 ± 0.32	-1.76 ± 0.22
UACGAGCAAUAUUACGUAUU	-3.45 ± 0.25	-2.47 ± 0.41
UACGAGCAAUAUUACGUCAC	-2.59 ± 0.25	-2.09 ± 0.32
UACGAGCAAUAUUACGUGAU	-4.17 ± 0.21	-2.45 ± 0.2

Sequence	self-splicing fitness (ln) (30 °C)	self-splicing fitness (ln) (37 °C)
UACGAGCAAUAUUACGUGUG	-2.43 ± 0.15	-1.82 ± 0.12
UACGAGCAAUAUUACGUUCU	-2.38 ± 0.14	-2.35 ± 0.16
UACGAGCAAUAUUACGUUGC	-3.28 ± 0.32	-2.18 ± 0.33
UACUAGCAAUAUUACGAAAG	-2.94 ± 0.11	-1.93 ± 0.13
UACUAGCAAUAUUACGAAGG	-3.46 ± 0.29	-1.04 ± 0.34
UACUAGCAAUAUUACGAAUG	-0.956 ± 0.083	0.689 ± 0.12
UACUAGCAAUAUUACGACCC		-0.364 ± 0.39
UACUAGCAAUAUUACGACUG	-0.572 ± 0.095	0.113 ± 0.13
UACUAGCAAUAUUACGAGCG	-0.191 ± 0.088	0.655 ± 0.11
UACUAGCAAUAUUACGAGCU	-2.4 ± 0.24	
UACUAGCAAUAUUACGAUAA	-1.05 ± 0.085	-0.513 ± 0.093
UACUAGCAAUAUUACGCAAA	-2.94 ± 0.31	-0.966 ± 0.2
UACUAGCAAUAUUACGCAGC	-2.49 ± 0.39	-2.08 ± 0.39
UACUAGCAAUAUUACGCAGG	-1.77 ± 0.14	-1.49 ± 0.15
UACUAGCAAUAUUACGCAUG	-1.72 ± 0.099	-0.591 ± 0.12
UACUAGCAAUAUUACGCCCG	0.342 ± 0.24	-1.04 ± 0.2
UACUAGCAAUAUUACGCGGG	-3.19 ± 0.22	-1.75 ± 0.2
UACUAGCAAUAUUACGCUCA	-0.532 ± 0.095	0.288 ± 0.13
UACUAGCAAUAUUACGCUCG	-0.908 ± 0.13	0.0226 ± 0.15
UACUAGCAAUAUUACGGCAC	-2.77 ± 0.19	-1.73 ± 0.2
UACUAGCAAUAUUACGGCCC	-1.47 ± 0.16	-2.36 ± 0.28
UACUAGCAAUAUUACGGCUU	-1.2 ± 0.096	0.146 ± 0.12
UACUAGCAAUAUUACGGUAA	-2.33 ± 0.14	-1.01 ± 0.12

Source: the supplement of paper PMC7877785
